Measurements: patent US10421817 (BEIJING MABWORKS BIOTECH, dated 2019)

B1: 18F2-5VH7VL2 (antibody, human IgG1, kappa)
heavy: not shown
light: DIVMTQSPSSLTVSLGEKATINCKSNQSLLNSGNQKNYVTWYQQKPGQPPKLLIYWGSTRVRGVPDRFSGSGSGTDFTLTISSLQAEDLAVYYCQNDYTYPFTFGQGTKLEIKRTVAAPSVFIFPPSDEQLKSGTASVVCLLNNFYPREAKVQWKVDNALQSGNSQESVTEQDSKDSTYSLSSTLTLSKADYEKHKVYACEVTHQGLSSPVTKSFNRGEC
notes: Humanized, human IgG1/kappa constant regions
B2: 18F2-5VH7VL3 (antibody, human IgG1, kappa)
heavy: not shown
light: DIVMTQSPSSLTVSLGEKATISCKSNQSLLNSGNQKNYVTWYQQKPGQPPKLLIYWGSTRVRGVPDRFSGSGSGTDFTLTISSLQAEDLAVYYCQNDYTYPFTFGSGTKLEIKRTVAAPSVFIFPPSDEQLKSGTASVVCLLNNFYPREAKVQWKVDNALQSGNSQESVTEQDSKDSTYSLSSTLTLSKADYEKHKVYACEVTHQGLSSPVTKSFNRGEC
notes: as for B1
B3: 18F2-30-VH4VL0 (antibody, human IgG1, kappa, V domains shown)
VH: QVQLVQSGAEVKKPGASVKVSCKASGYTFTSFWLNWVRQRPGQGLEWIGNIYPSTSYTVYNQKFKDRVTLTVDKSTSTVYMELSSLRSEDTAVYYCARTWRGNSFDYWGQGTTVTVSS
VL: DIVMTQSPDSLAVSLGERATINCKSSQSLLNSGNQKNYVTWYQQKPGQPPKLLIYWGSTRSTGVPDRFSGSGSGTDFTLTISSLQAEDVAVYYCQNDYTYPFTFGQGTKLEIKR
notes: as for B1
B4: 18F2-30-VH2VL0 (antibody, human IgG1, kappa, V domains shown)
VH: QVQLVQSGAEVKKPGASVKVSCKASGYTFTSFWLNWVRQAPGQGLEWIGNIYPSTSYTVYNQKFKDRVTLTVDKSTSTVYMELSSLRSEDTAVYYCARTWRGNSFDYWGQGTTVTVSS
VL: DIVMTQSPDSLAVSLGERATINCKSSQSLLNSGNQKNYVTWYQQKPGQPPKLLIYWGSTRSTGVPDRFSGSGSGTDFTLTISSLQAEDVAVYYCQNDYTYPFTFGQGTKLEIKR
notes: as for B1
B5: 18F2-30-VH3VL0 (antibody, human IgG1, kappa, V domains shown)
VH: QVQLVQSGAEVKKPGASVKVSCKASGYTFTSFWLNWVRQAPGQGLEWIGNIYPSTSYTVYNQKFKDRVTLTVDTSTSTVYMELSSLRSEDTAVYYCARTWRGNSFDYWGQGTTVTVSS
VL: DIVMTQSPDSLAVSLGERATINCKSSQSLLNSGNQKNYVTWYQQKPGQPPKLLIYWGSTRSTGVPDRFSGSGSGTDFTLTISSLQAEDVAVYYCQNDYTYPFTFGQGTKLEIKR
notes: as for B1
B6: 18F2-30-VH6VL3 (antibody, human IgG1, kappa)
heavy: not shown
light: DIVMTQSPSSLTVSLGEKATISCKSSQSLLNSGNQKNYVTWYQQKPGQPPKLLIYWGSTRSTGVPDRFSGSGSGTDFTLTISSLQAEDLAVYYCQNDYTYPFTFGSGTKLEIKRTVAAPSVFIFPPSDEQLKSGTASVVCLLNNFYPREAKVQWKVDNALQSGNSQESVTEQDSKDSTYSLSSTLTLSKADYEKHKVYACEVTHQGLSSPVTKSFNRGEC
notes: as for B1
B7: 18F2-30-VH6VL0 (antibody, human IgG1, kappa, V domains shown)
VH: QVQLVQSGAEVKKPGASVKVSCKASGYTFTSFWLNWVRQRPGQGLEWIGNIYPSTSYTVYNQKFKDRVTLTVDKSSSTAYMELSSLTSEDTAVYYCTRTWRGNSFDYWGQGTTVTVSS
VL: DIVMTQSPDSLAVSLGERATINCKSSQSLLNSGNQKNYVTWYQQKPGQPPKLLIYWGSTRSTGVPDRFSGSGSGTDFTLTISSLQAEDVAVYYCQNDYTYPFTFGQGTKLEIKR
notes: as for B1
B8: 18F2-30-VH7VL0 (antibody, human IgG1, kappa, V domains shown)
VH: QVQLVQSGAEVKKPGASVKVSCKASGYTFTSFWLNWVKQRPGQGLEWIGNIYPSTSYTVYNQKFKDKVTLTVDKSTSTAYMELSSLRSEDTAVYYCTRTWRGNSFDYWGQGTTVTVSS
VL: DIVMTQSPDSLAVSLGERATINCKSSQSLLNSGNQKNYVTWYQQKPGQPPKLLIYWGSTRSTGVPDRFSGSGSGTDFTLTISSLQAEDVAVYYCQNDYTYPFTFGQGTKLEIKR
notes: as for B1

biological target: T1, human Claudin 18.1 (human, UniProt P56856 1-261); assay: FACS on HEK293A/hClaudin 18.1 cells
T1 construct: Overexpressed on HEK293A cells by lentivirus
T1 sequence (P56856 whole entry): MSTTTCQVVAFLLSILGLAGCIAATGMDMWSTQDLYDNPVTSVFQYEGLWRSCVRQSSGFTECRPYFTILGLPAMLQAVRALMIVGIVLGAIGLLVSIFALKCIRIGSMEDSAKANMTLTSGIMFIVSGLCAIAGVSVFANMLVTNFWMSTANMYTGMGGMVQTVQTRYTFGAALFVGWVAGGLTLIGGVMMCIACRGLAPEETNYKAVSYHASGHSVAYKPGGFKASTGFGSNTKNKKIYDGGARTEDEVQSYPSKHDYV

Binding result, no binding:
B1
B2
B3
B4
B5
B6
B7
B8
